± gives the standard deviation of the averaged measurements.
Key:
Saccharomyces cerevisiae [1] = test: protein stability index of tFT-peptide fusion (C-terminal peptide) (PSI (0-1 scale)); higher = more stable (slower turnover)
Experimental: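 MPS profiling in S. cerevisiae of the tFT-X12 degron library: putative degron peptides plus stable controls, 12 aa, fused to the C-terminus of a sfGFP-mCherry timer. Cells are FACS-sorted into 8 mCherry/sfGFP bins and deep-sequenced. PSI runs from 0 (unstable) to 1 (stable). Backgrounds are wild type, das1Δ and doa10Δ at 30 °C, and wild type, das1Δ, cdc34-1 and cdc53-1 at 37 °C; 2-3 technical replicates each.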

Saccharomyces cerevisiae [2] = test: as above; details: genetic background: wild type; temperature: 30 C
[3] = genetic background: cdc34-1, temperature: 37 C
[4] = genetic background: cdc53-1, temperature: 37 C
[5] = genetic background: das1 deletion, temperature: 30 C
[6] = genetic background: das1 deletion, temperature: 37 C
[7] = genetic background: doa10 deletion, temperature: 30 C
[8] = genetic background: wild type, temperature: 30 C
[9] = genetic background: wild type, temperature: 37 C
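Further: PSI is a weighted mean of sequencing reads over stability bins, variants kept only with over 10 reads, mCherry proximal and sfGFP distal, peptide attached via GGGS linker.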

Sequence	protein stability index (Saccharomyces cerevisiae [1]; [3])	protein stability index (Saccharomyces cerevisiae [1]; [4])	protein stability index (Saccharomyces cerevisiae [1]; [5])	protein stability index (Saccharomyces cerevisiae [1]; [6])	protein stability index (Saccharomyces cerevisiae [1]; [7])	protein stability index (Saccharomyces cerevisiae [1]; [8])	protein stability index (Saccharomyces cerevisiae [1]; [9])	protein stability index (Saccharomyces cerevisiae [2])
LVSSYVPFFFAL	0.6057 ± 0.0033	0.717 ± 0.046	0.664 ± 0.0071	0.752 ± 0.011	0.25 ± 0.0073	0.29 ± 0.031	0.388 ± 0.015	0.342 ± 0.011
ILGQSVIMRIKM	0.673 ± 0.035	0.7301 ± 0.0028	0.615 ± 0.027	0.7007 ± 0.00077	0.606 ± 0.0061	0.636 ± 0.02	0.686 ± 0.014	0.714 ± 0.075
LLPTSVFLPSLF	0.6907 ± 0.0038	0.7726 ± 0.0059	0.663 ± 0.012	0.768 ± 0.014	0.282 ± 0.0082	0.331 ± 0.021	0.578 ± 0.018	0.489 ± 0.0069
YARFWYSKAFIC	0.455 ± 0.048	0.555 ± 0.011	0.581 ± 0.033	0.694 ± 0.025	0.12 ± 0.023	0.115 ± 0.012	0.169 ± 0.0034	0.2 ± 0.013
FLLYVITYRSET	0.151 ± 0.0098	0.304 ± 0.046	0.21 ± 0.03	0.442 ± 0.047	0.161 ± 0.0042	0.225 ± 0.025	0.378 ± 0.038	0.335 ± 0.046
WVGWVVVLGCVG	0.373 ± 0.027	0.42 ± 0.012	0.29 ± 0.026	0.47 ± 0.013	0.25152 ± 0.00025	0.282 ± 0.018	0.449 ± 0.022	0.489 ± 0.013
WFLRLVGAVFAL	0.539 ± 0.012	0.624 ± 0.039	0.528 ± 0.016	0.621 ± 0.018	0.46 ± 0.0085	0.485 ± 0.025	0.551 ± 0.032	0.447 ± 0.027
CFGSALLKCWLC	0.602 ± 0.037	0.726 ± 0.018	0.665 ± 0.013	0.7708 ± 0.0038	0.299 ± 0.002	0.303 ± 0.032	0.44 ± 0.0044	0.406 ± 0.035
IFLGFGPLFGRL	0.862 ± 0.044	0.878 ± 0.011	0.727 ± 0.03	0.817 ± 0.034	0.726 ± 0.037	0.73 ± 0.0083	0.824 ± 0.03	0.777 ± 0.034
FLSLVIVLRWFL	0.278 ± 0.048	0.303 ± 0.045	0.255 ± 0.022	0.381 ± 0.01	0.298 ± 0.021	0.242 ± 0.024	0.346 ± 0.02	0.347 ± 0.042

Source: the supplement of paper PMC10724198
